Earlier results, collected in US6316409A, “Modified ligands of calcium-dependent binding proteins” (Medical Research Council, priority 1996, dated 2001).

Target: T1, barnase (Bacillus amyloliquefaciens, UniProt P00648)
T1 sequence (P00648 48-157): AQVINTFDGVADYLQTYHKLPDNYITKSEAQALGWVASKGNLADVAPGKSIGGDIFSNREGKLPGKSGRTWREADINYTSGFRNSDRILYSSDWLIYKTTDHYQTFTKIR
Conditions: cited from earlier work

B1: barstar: physiological inhibitor of barnase (protein, UniProt P11540 2-90, looked up)
Barstar: KKAVINGEQIRSISDLHQTLKKELALPEYYGENLDALWDCLTGWVEYPLVLEWRQFEQSKQLTENGAESVLQVFREAKAEGCDITIILS
  association rate constant: 3.8e+09 M⁻¹ s⁻¹
